These results are taken from patent publication US20210107983A1 (Boehringer Ingelheim, published 2021).

Where a chain is given by its changes, count along the chain named.

Test [1] has as its target T1, Human CD3 E+G HuFc-6xHis (human).
T1 construct: also called HuCD3E+G-hFc; huCD3
Nature of the test: SPR, CD3E+G-hFc immobilized, binder analyte. In outline: (§1)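 On a ProteOn XPR36, human and cyno CD3E+G-hFc were amine-coupled to a GLM chip at 0.4, 0.2 and 0.1 μg/mL in 10 mM acetate pH 4.5. B7H6/CD3 binding protein (0–100 nM) flowed in HBS-EP+ at 30 μL/min, with 300 s association and 600 s dissociation. Interspot and blank responses were subtracted.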
Background: SPR reads the build-up and loss of mass on a sensor chip optically.

The target of test [2] is T2, Cyno CD3 E+G HuFc-6xHis (cynomolgus monkey).
T2 construct: also called CyCD3E+G-hFc; cyCD3
T2 sequence (chain, as listed by the source limits assumed): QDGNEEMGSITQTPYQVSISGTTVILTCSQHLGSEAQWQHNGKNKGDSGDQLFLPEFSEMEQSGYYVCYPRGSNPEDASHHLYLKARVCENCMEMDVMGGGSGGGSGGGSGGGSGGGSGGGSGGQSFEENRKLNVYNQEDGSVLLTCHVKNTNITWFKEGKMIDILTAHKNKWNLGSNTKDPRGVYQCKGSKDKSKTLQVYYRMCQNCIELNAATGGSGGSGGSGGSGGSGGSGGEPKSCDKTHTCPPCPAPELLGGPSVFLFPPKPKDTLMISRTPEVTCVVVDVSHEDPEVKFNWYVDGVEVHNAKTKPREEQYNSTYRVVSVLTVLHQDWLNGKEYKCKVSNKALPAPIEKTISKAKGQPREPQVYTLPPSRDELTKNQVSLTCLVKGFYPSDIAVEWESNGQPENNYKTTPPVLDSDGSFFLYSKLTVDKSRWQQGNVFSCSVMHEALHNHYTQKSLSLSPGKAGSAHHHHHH
Nature of the test: SPR, CD3E+G-hFc immobilized, binder analyte. The gist of the method: as §1

Test [3] has as its target T3, Cyno B7H6-His (cynomolgus monkey).
T3 construct: also called CyB7H6; cyB7-H6
T3 chain: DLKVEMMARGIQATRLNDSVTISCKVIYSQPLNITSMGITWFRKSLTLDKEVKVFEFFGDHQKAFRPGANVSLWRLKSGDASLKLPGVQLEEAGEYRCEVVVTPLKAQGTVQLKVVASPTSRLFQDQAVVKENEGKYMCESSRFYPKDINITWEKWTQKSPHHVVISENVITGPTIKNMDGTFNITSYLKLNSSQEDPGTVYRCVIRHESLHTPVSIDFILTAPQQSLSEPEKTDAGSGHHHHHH
Briefly: SPR, binder captured on Protein A/G, B7H6 analyte. The gist of the method: (§2)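 B7H6/CD3 binder captured (~700 RU) on a Protein A/G CM5 surface in HBS-EP+. Human or cyno B7H6 injected at 0–100 nM and human B7H1 at 0 nM and 1 μM, 300 s association and 1200 s dissociation. Data double-referenced against the reference flow cell and blank.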

For test [4], the target named is T4, trypsin inhibitor from Glycine max soybean (Glycine max (soybean)).
T4 construct: unrelated negatively charged protein, amine-coupled to the chip
T4 sequence (P01070 25-205): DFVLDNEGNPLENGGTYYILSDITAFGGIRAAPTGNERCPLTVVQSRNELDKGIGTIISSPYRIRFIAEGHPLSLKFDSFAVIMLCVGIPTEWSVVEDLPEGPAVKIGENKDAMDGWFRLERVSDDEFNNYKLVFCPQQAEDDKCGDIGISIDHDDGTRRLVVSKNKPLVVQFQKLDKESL
Nature of the test: SPR, 1 µM binder over immobilized trypsin inhibitor. In outline:
(§3)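 Non-specific binding tested with samples at 1 μM in HBS-EP at 25 °C, 5 μL/min, over lysozyme or trypsin inhibitor amine-coupled to CM5 chip (3000–5000 RU). Association 10 min, dissociation 15 min.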

For test [5], the target named is T5, Human B7H1 (human, UniProt Q9NZQ7 20-239).
T5 construct: also called HuB7H1; huB7-H1
T5 sequence (Q9NZQ7 other isoform, or with tags, fused parts or gaps limits assumed): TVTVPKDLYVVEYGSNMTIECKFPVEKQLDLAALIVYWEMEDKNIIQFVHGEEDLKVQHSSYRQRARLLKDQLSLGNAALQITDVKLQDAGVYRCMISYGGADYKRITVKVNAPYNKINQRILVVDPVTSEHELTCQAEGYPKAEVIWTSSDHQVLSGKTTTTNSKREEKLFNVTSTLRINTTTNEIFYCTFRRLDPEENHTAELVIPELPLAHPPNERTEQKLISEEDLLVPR
Briefly: SPR, binder captured on Protein A/G, HuB7H1 analyte. The gist of the method:
as §2

Test [6] has as its target T6, chicken egg white lysozyme (chicken, UniProt P00698 19-147).
T6 construct: unrelated positively charged protein, amine-coupled to the chip; also called Lysozyme (positive)
Briefly: SPR, 1 µM binder over immobilized lysozyme. The gist of the method: as §3

Test [7] addresses T3, Cyno B7H6-His. Nature of the test: ratio of SPR KDs cyno/human.
For test [8], the target named is T2, Cyno CD3 E+G HuFc-6xHis. Nature of the test: ratio of SPR KDs cyno/human.

T1 sequence (chain, as listed by the source limits assumed): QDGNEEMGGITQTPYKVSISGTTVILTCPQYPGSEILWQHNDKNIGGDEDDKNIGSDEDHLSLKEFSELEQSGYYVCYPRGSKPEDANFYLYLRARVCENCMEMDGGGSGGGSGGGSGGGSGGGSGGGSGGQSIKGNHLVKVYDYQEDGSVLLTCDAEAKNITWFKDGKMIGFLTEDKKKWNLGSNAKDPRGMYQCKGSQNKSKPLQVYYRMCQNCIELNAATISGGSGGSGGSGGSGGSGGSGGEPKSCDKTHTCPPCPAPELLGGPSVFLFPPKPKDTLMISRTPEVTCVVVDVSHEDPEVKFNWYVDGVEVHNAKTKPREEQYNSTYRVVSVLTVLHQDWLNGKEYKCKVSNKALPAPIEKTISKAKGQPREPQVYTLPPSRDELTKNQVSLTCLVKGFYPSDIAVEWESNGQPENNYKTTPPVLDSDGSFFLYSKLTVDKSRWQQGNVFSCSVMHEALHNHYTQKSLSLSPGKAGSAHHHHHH
T6 sequence (P00698 19-147): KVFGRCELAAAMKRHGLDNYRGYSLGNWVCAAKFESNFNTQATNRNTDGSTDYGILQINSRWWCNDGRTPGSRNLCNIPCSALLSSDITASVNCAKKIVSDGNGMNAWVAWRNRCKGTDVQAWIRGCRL

B1: B7H6#14/CD3#3 (bispecific antibody, human IgG1, kappa, L234A L235A)
chain 1: DIQMTQSPSSLSASVGDRVTITCKASQNVGKYVAWYQQKPGKAPKSLIYSASNRYDGVPSRFSGSGSGTDFTLTISSLQPEDFATYFCQQYISYPLTFGAGTKLEIKRTVAAPSVFIFPPSDEQLKSGTASVVCLLNNFYPREAKVQWKVDNALQSGNSQESVTEQDSKDSTYSLSSTLTLSKADYEKHKVYACEVTHQGLSSPVTKSFNRGECGGGGSEGKSSGSGSESKSTEGKSSGSGSESKSTGGGGSQVQLVQSGAEVKKPGASVKVSCKASGYTFTNYWMNWMKQAPGQGLEWIGGIYLNGDSTDYNEKFKGKVTMTVDTSTSTVYMELSSLRSEDTAVYYCTRRGDYFGDFWGQGTLVTVSSASTKGPSVFPLAPSSKSTSGGTAALGCLVKDYFPEPVTVSWNSGALTSGVHTFPAVLQSSGLYSLSSVVTVPSSSLGTQTYICNVNHKPSNTKVDKRVEPKSCDKTHTCPPCPAPEAAGGPSVFLFPPKPKDTLMISRTPEVTCVVVDVSHEDPEVKFNWYVDGVEVHNAKTKPREEQYNSTYRVVSVLTVLHQDWLNGKEYKCKVSNKALPAPIEKTISKAKGQPREPQVYTLPPSREEMTKNQVSLWCLVKGFYPSDIAVEWESNGQPENNYKTTPPVLDSDGSFFLYSKLTVDKSRWQQGNVFSCSVMHEALHNHYTQKSLSLSPG
chain 2: not shown
notes: scFab-Fc heterodimer
What is called Kd is the free concentration of one partner at which half of the binding sites on the other are occupied at equilibrium, for simple one-to-one binding. With B1, the Kd in test [1] was determined as 4.8 nM; in test [2], 7.1 nM; in test [3] it was 1.1 nM. The “Non-specific binding (RU)” value in test [4] is 26.4 RU; in test [6], 12.4 RU. Moreover, the binding result in test [5] was “no binding (tested: 1 µM)”. In test [7], the “cy/hu B7-H6” value stood at 0.9. In addition, in test [8], the “cy/hu CD3” value was determined as 1.5.

B2: B7H6#23/CD3#2 (bispecific antibody, human IgG1, kappa, L234A L235A)
chain 1: B1 chain 1 with G57A, N283S, N306S, D308E
chain 2: not shown
notes: scFab-Fc heterodimer
For B2, the results for the dissociation constant (Kd) in test [1], in test [2] and in test [3] were 10.4 nM, 10 nM and 2 nM, respectively. For the same molecule, the “Non-specific binding (RU)” value in test [4] came to 47.8 RU; in test [6] it was 37.8 RU. Besides, the binding result in test [5] is listed as “no binding (tested: 1 µM)”. Also, the “cy/hu B7-H6” value in test [7] is 1.1. The “cy/hu CD3” value in test [8] was determined as 1.

B3: B7H6#14/CD3#6 (bispecific antibody, human IgG1, kappa, L234A L235A)
chain 1: B1 chain 1
chain 2: not shown
notes: scFab-Fc heterodimer
For B3, the Kd came out at 4.1 nM in test [1], 5.7 nM in test [2] and 0.9 nM in test [3]. Besides, the “Non-specific binding (RU)” value in test [4] stood at 34 RU; in test [6], 15.7 RU. Further, the binding result in test [5] is “no binding (tested: 1 µM)”. Moreover, the “cy/hu B7-H6” value in test [7] was 2.1. For the same molecule, in test [8], the “cy/hu CD3” value turned out to be 1.4.

B4: B7H6#22/CD3#1 (bispecific antibody, human IgG1, kappa, lambda, L234A L235A)
chain 1: B1 chain 1 with G57A, N283S, N306S
chain 2: EAVVTQEPSLTVSPGGTVTLTCRSSTGAVTTSNYANWVQEKPGQLPRGLIGGTNKRAPWVPARFSGSLLGGKAALTLSGAQPEDEAEYFCALWYSNLWVFGGGTKLTVLGQPKAAPSVTLFPPSSEELQANKATLVCLISDFYPGAVKVAWKADGSPVNTGVETTTPSKQSNNKYAASSYLSLTPEQWKSHRSYSCQVTHEGSTVEKTVAPAECSGGGGSEGKSSGSGSESKSTEGKSSGSGSESKSTGGGGSEVQLVESGGGLVQPGGSLKLSCAASGFTFNTYAMNWVRQAPGKGLEWVARIRSKYNNYATYYADSVKDRFTISRDDSKNTAYLQMNNLKTEDTAVYYCVRHGNFGNSYVSWFAYWGQGTLVTVSAASTKGPSVFPLAPSSKSTSGGTAALGCLVKDYFPEPVTVSWNSGALTSGVHTFPAVLQSSGLYSLSSVVTVPSSSLGTQTYICNVNHKPSNTKVDKRVEPKSCDKTHTCPPCPAPEAAGGPSVFLFPPKPKDTLMISRTPEVTCVVVDVSHEDPEVKFNWYVDGVEVHNAKTKPREEQYNSTYRVVSVLTVLHQDWLNGKEYKCKVSNKALPAPIEKTISKAKGQPREPQVYTLPPSREEMTKNQVSLSCAVKGFYPSDIAVEWESNGQPENNYKTTPPVLDSDGSFFLVSKLTVDKSRWQQGNVFSCSVMHEALHNRFTQKSLSLSPG
notes: scFab-Fc heterodimer, one B7H6 chain and one CD3 chain
On to B4, for which the values for the equilibrium dissociation constant (Kd) in test [1] and in test [3] were 5.1 nM and 1.4 nM, respectively. The “Non-specific binding (RU)” value is 39.5 RU in test [4] and 7.8 RU in test [6]. Further, the binding result in test [5] is listed as “no binding (tested: 1 µM)”. The “cy/hu B7-H6” value in test [7] stood at 1.

B5: B7H6#24/CD3#1 (bispecific antibody, human IgG1, kappa, lambda, L234A L235A)
chain 1: B1 chain 1 with G57A, A84T, F87Y, K290R, I300M, N306S, K319R
chain 2: B4 chain 2
notes: as for B4
With B5, the figures for the Kd in test [1] and in test [3] were 7.8 nM and 3.1 nM, respectively. Also, the entries for the “Non-specific binding (RU)” value in test [4] and in test [6] were 43.5 RU and 7.9 RU, respectively. In test [5], the binding result is “no binding (tested: 1 µM)”. For the same molecule, the “cy/hu B7-H6” value in test [7] came out at 1.7.

B6: B7H6#23/CD3#1 (bispecific antibody, human IgG1, kappa, lambda, L234A L235A)
chain 1: B1 chain 1 with G57A, N283S, N306S, D308E
chain 2: B4 chain 2
notes: as for B4
For the molecule B6, the dissociation constant (Kd) in test [1] was found to be 5.5 nM; in test [3], 1.2 nM. Further, the “Non-specific binding (RU)” value came out at 45.7 RU in test [4] and 8.1 RU in test [6]. Moreover, in test [5], the binding result is “no binding (tested: 1 µM)”. The “cy/hu B7-H6” value in test [7] is 0.9.

B7: B7H6#21/CD3#1 (bispecific antibody, human IgG1, kappa, lambda, L234A L235A)
chain 1: B1 chain 1 with N283S, N306S, D308E
chain 2: B4 chain 2
notes: as for B4
As for B7, the dissociation constant (Kd) in test [1] worked out at 4.4 nM; in test [3] it was 1.4 nM. The “Non-specific binding (RU)” value is 42 RU in test [4] and 8.1 RU in test [6]. Moreover, the binding result in test [5] is listed as “no binding (tested: 1 µM)”. Further, the “cy/hu B7-H6” value in test [7] worked out at 0.4.

B8: B7H6#14/CD3#5 (bispecific antibody, human IgG1, kappa, L234A L235A)
chain 1: B1 chain 1
chain 2: not shown
notes: scFab-Fc heterodimer
For B8, the Kd in test [1] came out at 4.3 nM; in test [2], 5.2 nM; in test [3] it was 1 nM. Moreover, the “Non-specific binding (RU)” value amounted to 110 RU in test [4] and 16.2 RU in test [6]. In addition, the binding result in test [5] is “no binding (tested: 1 µM)”. Moreover, the “cy/hu B7-H6” value in test [7] was 1.1. Further, the “cy/hu CD3” value in test [8] was determined as 1.2.
